Experimental data published in the RNAGym collection of RNA variant scans (doi:10.1073/pnas.2313332121).

B1: TPR t1 (parent)
chain: GACCAAUCUGCCCUCAGAGCUCGAGAACAUCUUCGGAUGCAGAGGAGGCAGGCUUCGGUGGCGCGAUAGCGCCAACGUCCUCAACCUCCAAUGCAUCCCACCACAUGAUGAUGCCUGAAGAGCCUUGGUUUUUUG

Variants of: B1
Assay: polymerase ribozyme fitness, log enrichment relative to wild type (log ratio); higher = more active; in vitro selection for triplet polymerase activity
Outline: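 To select mutant libraries of each subunit of a heterodimeric triplet polymerase ribozyme, built by PCR and transcribed, each was annealed with a biotinylated primer, partner subunit and triplets, then incubated frozen at −7 °C. Extended constructs were gel-excised, captured on streptavidin beads and amplified by RT-PCR, in one round carried out in triplicate. Illumina sequencing of input and output libraries kept genotypes with ≥10 input reads and ≥1 read per output. Fitness is the base-2 logarithm of genotype enrichment relative to wild-type enrichment, from inverse-variance-weighted replicate averages.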

Variant | polymerase ribozyme fitness (log ratio)
G63A C104A | -2.41
C62A C86A C98U | -3.12
C62U C115G | -2.51
C62U C115A | 0.00277
G63A C89A | -3.19
C62G C73U A74U U109G C124A | -6.92
G61U C123A | 0.578
G61U C123G | 1.2
C62A C94A | -2.2
C62G G117A | -2.78
G61U C115U | -0.433
G63A A84U U92G G117A | -6.18
C62A U96G | -1.8
G63A C82U C94U A95C C115U U132C | -2.7
C62U C104U | 0.0133
C62G G69U | -5.17
G63A G110C | -5.57
G63A G110A | -2.72
G63A G110U | -3.42
C62U C79U | -0.282
C62U U87G U109A | -5.76

Variant | polymerase ribozyme fitness (log ratio)
C62U G122U | 0.2
C62U G122A | -0.839
G63A U126A | -2.47
G63A C79U A91U | -3.61
C62A U130C | -1.71
G63A A83C C102U G113U | -7.43
G61U U87C C99U C115G | -4.63
C62U A74G C88A | -3.21
C62U U81C C94U U96C C114A | -2.82
G63C A75G C85A A95U A100C C115G U126C | -5.24
C62A G122A | -1.85
C62A G122U | 0.143
C62U A108C G117U C124A | -6.3
G63A A68G | -3.95
C62U C73U U81G A84C G113A | -3.57
G63A C80U | -1.54
G61U U92G U126A U129G | -5.18
C62U U109C | -4
C62U U109A | -4.57
C62U C97U | -0.489
C62U C97G | -4.18

Variant | polymerase ribozyme fitness (log ratio)
G63A G77U C79U A100C | -2.62
G61U U78A G128C | -2.72
C62U U78C U96G U129C | -0.314
G61U U109C | -2.41
G61U U106A | 0.146
G61U U106G | -0.849
C62U C123A | 0.98
C62G C102U | -4.74
G63C A84G C94A | -3.04
C62A U87A U92A U116C | -6.88
C62G C89A | -4.23
G63A C86A | -2.33
G63A C86U | -0.411
G63A U109G | -4.41
G63A U116C C123U | -4.18
C62U G77U | -0.487
C62U A90C G135U | -2.45
G63A A66U U106A G117A | -4.86
C62U U81G | -3.67
C62U C73U U112G | 0.712
G61U U81C C82U A121C | 0.807

Variant | polymerase ribozyme fitness (log ratio)
C62U A74U U78C G120A | -0.246
G61U G107C | -4.98
G63A A118U | 0.468
C62U A121U | 1.08
C62U A121C | 1.11
G63A C73A | -1.93
C62U A74U G128C | -3
C62U C76U G127A | -2.58
G63A G93U | -2.58
G61U U132A | 0.196
C62G C104U | -1.52
C62G C104A | -4.04
G61U G93U | -0.532
G61U U78C G117U | -1.99
C62G A118G | -1.44
G63A C72U C101U | -1.24
G63A G127C | -1.62
G61U U116C U130G | -0.407
C62A U106G A121G | -0.77
C62A U129G | -1.28
G61U G122A | -0.264
